Experimental data: US20230190867A1, “METHODS OF TREATING NASH AND COMPOSITIONS THEREFORE” (BIOINCEPT, LLC, priority 2018, published 2023)

Assays:
[1] = molecular target: Peroxiredoxin-1 (Homo sapiens) (UniProt Q06830); experiment: PIF-agarose affinity extraction of normal human liver lysate 3, LC-MS/MS
[2] = molecular target: Alcohol dehydrogenase 1A (Homo sapiens) (UniProt P07327); experiment: as above
[3] = molecular target: Tropomyosin alpha-4 chain (Homo sapiens) (UniProt P67936); experiment: as above
Chain of Tropomyosin alpha-4 chain (Homo sapiens) (P67936 2-248 limits assumed): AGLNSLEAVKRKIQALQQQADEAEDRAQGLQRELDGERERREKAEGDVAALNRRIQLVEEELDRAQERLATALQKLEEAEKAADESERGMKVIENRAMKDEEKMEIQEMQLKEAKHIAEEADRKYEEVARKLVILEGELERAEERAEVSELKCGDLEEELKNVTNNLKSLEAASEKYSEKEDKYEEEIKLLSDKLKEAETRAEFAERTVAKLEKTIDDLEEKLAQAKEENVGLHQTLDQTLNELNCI

[4] = molecular target: Alpha-actinin-4 (Homo sapiens) (UniProt O43707); experiment: as above
Chain of Alpha-actinin-4 (Homo sapiens) (O43707 whole entry): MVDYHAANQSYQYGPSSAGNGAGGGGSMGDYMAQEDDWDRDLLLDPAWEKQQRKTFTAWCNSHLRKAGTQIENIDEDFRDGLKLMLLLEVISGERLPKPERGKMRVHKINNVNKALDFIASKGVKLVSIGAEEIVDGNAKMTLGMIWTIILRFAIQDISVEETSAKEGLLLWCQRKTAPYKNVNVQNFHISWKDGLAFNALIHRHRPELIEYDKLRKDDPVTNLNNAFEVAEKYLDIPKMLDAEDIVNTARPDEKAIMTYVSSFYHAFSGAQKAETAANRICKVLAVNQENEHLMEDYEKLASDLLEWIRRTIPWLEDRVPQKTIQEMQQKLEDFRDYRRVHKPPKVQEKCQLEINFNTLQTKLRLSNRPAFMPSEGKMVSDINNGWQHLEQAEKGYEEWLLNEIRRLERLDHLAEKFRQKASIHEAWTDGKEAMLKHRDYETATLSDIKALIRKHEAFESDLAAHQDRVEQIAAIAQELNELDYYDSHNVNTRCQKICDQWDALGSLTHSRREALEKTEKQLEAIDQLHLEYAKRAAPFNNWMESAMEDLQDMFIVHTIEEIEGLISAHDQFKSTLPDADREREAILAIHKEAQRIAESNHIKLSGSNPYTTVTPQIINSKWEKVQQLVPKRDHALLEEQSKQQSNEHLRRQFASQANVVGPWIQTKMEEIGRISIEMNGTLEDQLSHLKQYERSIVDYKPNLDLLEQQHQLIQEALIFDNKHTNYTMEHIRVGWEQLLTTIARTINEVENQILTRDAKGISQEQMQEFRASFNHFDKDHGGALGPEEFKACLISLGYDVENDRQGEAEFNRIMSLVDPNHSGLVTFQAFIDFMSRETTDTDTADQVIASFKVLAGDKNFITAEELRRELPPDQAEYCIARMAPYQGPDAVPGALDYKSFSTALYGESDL

[5] = molecular target: Activated RNA polymerase II transcriptional coactivator p15 (Homo sapiens) (UniProt P53999); experiment: as above
[6] = molecular target: 14-3-3 protein epsilon (Homo sapiens) (UniProt P62258); experiment: as above
[7] = molecular target: Membrane-associated progesterone receptor component 1 (Homo sapiens) (UniProt O00264); experiment: as above
Chain of Membrane-associated progesterone receptor component 1 (Homo sapiens) (O00264 whole entry): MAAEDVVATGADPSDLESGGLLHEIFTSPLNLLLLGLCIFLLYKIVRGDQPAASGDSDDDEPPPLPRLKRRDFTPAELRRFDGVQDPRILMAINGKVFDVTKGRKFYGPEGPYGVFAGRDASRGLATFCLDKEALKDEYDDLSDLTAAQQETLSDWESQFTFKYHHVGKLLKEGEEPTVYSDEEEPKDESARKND

[8] = molecular target: Protein disulfide-isomerase (Homo sapiens) (UniProt P07237); experiment: as above
[9] = molecular target: Cytochrome b5 (Homo sapiens) (UniProt P00167); experiment: as above
Chain of Cytochrome b5 (Homo sapiens) (P00167 2-134 limits assumed): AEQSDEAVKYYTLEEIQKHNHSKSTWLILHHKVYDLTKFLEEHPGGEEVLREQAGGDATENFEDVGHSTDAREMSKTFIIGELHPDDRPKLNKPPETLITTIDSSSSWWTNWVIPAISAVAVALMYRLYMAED

[10] = molecular target: Cytosolic 10-formyltetrahydrofolate dehydrogenase (Homo sapiens) (UniProt O75891); experiment: as above
[11] = molecular target: Transitional endoplasmic reticulum ATPase (Homo sapiens) (UniProt P55072); experiment: as above
Chain of Transitional endoplasmic reticulum ATPase (Homo sapiens) (P55072 2-806 limits assumed): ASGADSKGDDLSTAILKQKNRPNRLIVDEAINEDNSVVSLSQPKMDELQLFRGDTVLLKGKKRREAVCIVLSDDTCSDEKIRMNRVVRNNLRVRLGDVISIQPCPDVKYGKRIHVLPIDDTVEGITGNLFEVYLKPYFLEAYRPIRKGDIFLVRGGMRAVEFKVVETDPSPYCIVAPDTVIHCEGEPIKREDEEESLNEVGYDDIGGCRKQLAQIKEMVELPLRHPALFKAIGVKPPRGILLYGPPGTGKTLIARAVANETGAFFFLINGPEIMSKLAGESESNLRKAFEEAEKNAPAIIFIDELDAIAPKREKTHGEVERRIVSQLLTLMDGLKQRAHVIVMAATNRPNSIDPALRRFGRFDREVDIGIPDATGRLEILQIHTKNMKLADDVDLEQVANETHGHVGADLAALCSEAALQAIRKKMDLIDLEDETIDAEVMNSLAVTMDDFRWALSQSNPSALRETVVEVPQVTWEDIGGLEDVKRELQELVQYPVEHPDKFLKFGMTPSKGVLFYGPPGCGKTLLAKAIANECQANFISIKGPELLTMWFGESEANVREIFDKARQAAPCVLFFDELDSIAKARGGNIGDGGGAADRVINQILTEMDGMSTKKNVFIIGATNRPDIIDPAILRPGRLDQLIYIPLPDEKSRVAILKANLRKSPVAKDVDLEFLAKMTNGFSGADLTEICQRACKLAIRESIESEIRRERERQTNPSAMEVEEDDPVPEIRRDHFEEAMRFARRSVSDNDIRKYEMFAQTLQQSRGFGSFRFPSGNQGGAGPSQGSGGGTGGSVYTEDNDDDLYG

[12] = molecular target: Protein disulfide-isomerase A4 (Homo sapiens) (UniProt P13667); experiment: as above
Chain of Protein disulfide-isomerase A4 (Homo sapiens) (P13667 21-645 limits assumed): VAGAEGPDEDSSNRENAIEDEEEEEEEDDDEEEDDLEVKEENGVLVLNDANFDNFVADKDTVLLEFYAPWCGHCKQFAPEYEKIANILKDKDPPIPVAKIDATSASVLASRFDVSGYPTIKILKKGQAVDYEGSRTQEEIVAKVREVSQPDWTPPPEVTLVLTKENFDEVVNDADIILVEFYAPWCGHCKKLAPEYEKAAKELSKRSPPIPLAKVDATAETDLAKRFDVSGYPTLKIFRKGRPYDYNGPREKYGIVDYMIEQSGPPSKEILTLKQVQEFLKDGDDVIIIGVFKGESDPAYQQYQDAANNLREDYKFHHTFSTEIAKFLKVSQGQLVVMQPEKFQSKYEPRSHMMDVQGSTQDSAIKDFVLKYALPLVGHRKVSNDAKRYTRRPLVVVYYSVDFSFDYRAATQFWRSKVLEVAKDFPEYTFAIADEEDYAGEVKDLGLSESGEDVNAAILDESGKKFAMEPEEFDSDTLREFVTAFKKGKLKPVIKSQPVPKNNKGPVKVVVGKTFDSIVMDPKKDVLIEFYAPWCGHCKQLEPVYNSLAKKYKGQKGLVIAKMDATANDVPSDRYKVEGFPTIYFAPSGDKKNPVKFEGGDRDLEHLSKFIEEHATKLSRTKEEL

[13] = molecular target: Calmodulin (Homo sapiens) (UniProt P0DP23); experiment: as above
[14] = molecular target: Parathymosin (Homo sapiens) (UniProt P20962); experiment: as above
Chain of Parathymosin (Homo sapiens) (P20962 2-102 limits assumed): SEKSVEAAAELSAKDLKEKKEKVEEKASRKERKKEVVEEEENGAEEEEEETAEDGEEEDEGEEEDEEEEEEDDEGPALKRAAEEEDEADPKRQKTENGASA

[15] = molecular target: Hepatoma-derived growth factor (Homo sapiens) (UniProt P51858); experiment: as above
[16] = molecular target: Alcohol dehydrogenase 4 (Homo sapiens) (UniProt P08319); experiment: as above
Chain of Alcohol dehydrogenase 4 (Homo sapiens) (P08319 whole entry): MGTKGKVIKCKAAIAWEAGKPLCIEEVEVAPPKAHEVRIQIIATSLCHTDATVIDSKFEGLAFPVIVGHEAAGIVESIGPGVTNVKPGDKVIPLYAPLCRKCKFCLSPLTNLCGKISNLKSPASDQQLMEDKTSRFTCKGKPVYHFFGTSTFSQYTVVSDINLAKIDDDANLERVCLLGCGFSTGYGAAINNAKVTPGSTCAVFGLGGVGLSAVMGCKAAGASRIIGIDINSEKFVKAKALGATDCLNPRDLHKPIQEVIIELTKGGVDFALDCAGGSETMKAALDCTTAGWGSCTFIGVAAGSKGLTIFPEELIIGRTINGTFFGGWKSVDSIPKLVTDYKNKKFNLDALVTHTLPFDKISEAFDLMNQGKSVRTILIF

[17] = molecular target: 78 kDa glucose-regulated protein (Homo sapiens) (UniProt P11021); experiment: as above
Chain of 78 kDa glucose-regulated protein (Homo sapiens) (P11021 19-654 limits assumed): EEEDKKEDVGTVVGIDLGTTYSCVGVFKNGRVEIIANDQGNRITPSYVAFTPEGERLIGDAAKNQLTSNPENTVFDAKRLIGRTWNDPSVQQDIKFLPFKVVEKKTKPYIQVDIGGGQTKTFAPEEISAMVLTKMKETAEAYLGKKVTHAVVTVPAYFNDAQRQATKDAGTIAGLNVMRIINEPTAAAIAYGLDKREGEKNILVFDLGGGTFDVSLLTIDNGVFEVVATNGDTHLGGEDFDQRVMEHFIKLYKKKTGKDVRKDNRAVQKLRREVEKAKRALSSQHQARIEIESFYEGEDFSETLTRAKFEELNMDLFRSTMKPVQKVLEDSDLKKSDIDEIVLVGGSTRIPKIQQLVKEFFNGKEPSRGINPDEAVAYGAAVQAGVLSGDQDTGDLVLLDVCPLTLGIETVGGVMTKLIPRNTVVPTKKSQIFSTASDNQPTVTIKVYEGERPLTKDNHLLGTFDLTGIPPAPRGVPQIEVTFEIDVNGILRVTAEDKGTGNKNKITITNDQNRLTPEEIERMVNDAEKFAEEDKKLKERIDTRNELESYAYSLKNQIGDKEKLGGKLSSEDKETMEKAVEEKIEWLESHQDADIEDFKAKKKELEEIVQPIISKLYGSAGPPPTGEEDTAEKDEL

[18] = molecular target: Protein disulfide-isomerase A3 (Homo sapiens) (UniProt P30101); experiment: as above
[19] = molecular target: Enoyl-CoA hydratase domain-containing protein 2, mitochondrial (Homo sapiens) (UniProt Q86YB7); experiment: as above
[20] = molecular target: Calreticulin (Homo sapiens) (UniProt P27797); experiment: as above
Chain of Calreticulin (Homo sapiens) (P27797 18-417 limits assumed): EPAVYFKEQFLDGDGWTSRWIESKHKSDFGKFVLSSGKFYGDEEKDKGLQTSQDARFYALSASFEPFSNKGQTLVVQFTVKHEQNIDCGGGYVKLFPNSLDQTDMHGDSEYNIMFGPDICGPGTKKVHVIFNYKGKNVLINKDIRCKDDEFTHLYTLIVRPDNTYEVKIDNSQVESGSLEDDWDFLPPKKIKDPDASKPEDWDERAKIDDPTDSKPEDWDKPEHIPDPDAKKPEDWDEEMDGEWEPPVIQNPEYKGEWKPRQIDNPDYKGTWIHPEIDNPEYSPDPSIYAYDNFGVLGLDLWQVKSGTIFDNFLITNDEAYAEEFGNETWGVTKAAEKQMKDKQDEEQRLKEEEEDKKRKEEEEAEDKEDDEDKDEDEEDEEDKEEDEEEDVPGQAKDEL

Vimentin (Homo sapiens) = Vimentin (Homo sapiens) (UniProt P08670); experiment: as above
[21] = molecular target: Endoplasmin (Homo sapiens) (UniProt P14625); experiment: as above
[22] = molecular target: Alcohol dehydrogenase 1B (Homo sapiens) (UniProt P00325); experiment: as above
[23] = molecular target: Cytochrome b-c1 complex subunit 6, mitochondrial (Homo sapiens) (UniProt P07919); experiment: as above
Chain of Cytochrome b-c1 complex subunit 6, mitochondrial (Homo sapiens) (P07919 14-91 limits assumed, one chain of several): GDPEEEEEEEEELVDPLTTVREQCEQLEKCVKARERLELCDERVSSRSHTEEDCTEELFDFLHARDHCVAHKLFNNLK

[24] = molecular target: Delta-aminolevulinic acid dehydratase (Homo sapiens) (UniProt P13716); experiment: as above
[25] = molecular target: Peroxiredoxin-1 (Homo sapiens) (UniProt Q06830); experiment: PIF-agarose affinity extraction of normal human liver lysate 1, LC-MS/MS
[26] = molecular target: Tropomyosin alpha-4 chain (Homo sapiens) (UniProt P67936); experiment: as above
[27] = molecular target: Alpha-actinin-4 (Homo sapiens) (UniProt O43707); experiment: as above
[28] = molecular target: Membrane-associated progesterone receptor component 1 (Homo sapiens) (UniProt O00264); experiment: as above
[29] = molecular target: Cytochrome b5 (Homo sapiens) (UniProt P00167); experiment: as above
[30] = molecular target: Transitional endoplasmic reticulum ATPase (Homo sapiens) (UniProt P55072); experiment: as above
[31] = molecular target: Protein disulfide-isomerase A4 (Homo sapiens) (UniProt P13667); experiment: as above
[32] = molecular target: Calmodulin (Homo sapiens) (UniProt P0DP23); experiment: as above
[33] = molecular target: Parathymosin (Homo sapiens) (UniProt P20962); experiment: as above
[34] = molecular target: Alcohol dehydrogenase 4 (Homo sapiens) (UniProt P08319); experiment: as above
[35] = molecular target: 78 kDa glucose-regulated protein (Homo sapiens) (UniProt P11021); experiment: as above
[36] = molecular target: Calreticulin (Homo sapiens) (UniProt P27797); experiment: as above
[37] = molecular target: Cytochrome b-c1 complex subunit 6, mitochondrial (Homo sapiens) (UniProt P07919); experiment: as above

Chain of Peroxiredoxin-1 (Homo sapiens) (Q06830 2-199 limits assumed): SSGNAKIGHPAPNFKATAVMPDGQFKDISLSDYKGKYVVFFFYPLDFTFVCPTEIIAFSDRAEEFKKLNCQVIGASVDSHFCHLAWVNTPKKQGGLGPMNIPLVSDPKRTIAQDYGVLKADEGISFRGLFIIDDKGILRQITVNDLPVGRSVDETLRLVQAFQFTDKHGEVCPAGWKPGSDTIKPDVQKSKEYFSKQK

Q: What does the source list for sPIF-1(15) (peptide)?
A: % Coverage of the unique peptides observed [1]: 29%; % Coverage of the unique peptides observed [2]: 54%; % Coverage of the unique peptides observed [3]: 40%; % Coverage of the unique peptides observed [4]: 19%; % Coverage of the unique peptides observed [5]: 34%; % Coverage of the unique peptides observed [6]: 64%; % Coverage of the unique peptides observed [7]: 46%; % Coverage of the unique peptides observed [8]: 75%; % Coverage of the unique peptides observed [9]: 43%; % Coverage of the unique peptides observed [10]: 52%; % Coverage of the unique peptides observed [11]: 52%; % Coverage of the unique peptides observed [12]: 51%; % Coverage of the unique peptides observed [13]: 46%; % Coverage of the unique peptides observed [14]: 82%; % Coverage of the unique peptides observed [15]: 52%; % Coverage of the unique peptides observed [16]: 61%; % Coverage of the unique peptides observed [17]: 48%; % Coverage of the unique peptides observed [18]: 42%; % Coverage of the unique peptides observed [19]: 31%; % Coverage of the unique peptides observed [20]: 70%; % Coverage of the unique peptides observed (Vimentin (Homo sapiens)): 52%; % Coverage of the unique peptides observed [21]: 43%; % Coverage of the unique peptides observed [22]: 66%; % Coverage of the unique peptides observed [23]: 58%; % Coverage of the unique peptides observed [24]: 25%; % Coverage of the unique peptides observed [25]: 57%; % Coverage of the unique peptides observed [26]: 47%; % Coverage of the unique peptides observed [27]: 48%; % Coverage of the unique peptides observed [28]: 46%; % Coverage of the unique peptides observed [29]: 49%; % Coverage of the unique peptides observed [30]: 52%; % Coverage of the unique peptides observed [31]: 52%; % Coverage of the unique peptides observed [32]: 46%; % Coverage of the unique peptides observed [33]: 58%; % Coverage of the unique peptides observed [34]: 53%; % Coverage of the unique peptides observed [35]: 55%; % Coverage of the unique peptides observed [36]: 63%; % Coverage of the unique peptides observed [37]: 53%
